Experimental data published in the supplement of paper PMC9170038.

Test system: MS2 coat protein
Experiment: apparent KD of MS2 coat protein; designed switch direction (-1 OFF switch, 1 ON switch): -1; higher = weaker reporter binding
In short: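 Stalled E. coli RNA polymerase transcribed designed RNA switches on Illumina chips, which were then titrated with SNAP-549-labelled MS2 coat protein, doubling from 0.7 or 1.5 nM to 3 µM. Steps lasted from 0.8–1.5 h at the lowest concentration to 10–20 min at the highest. The apparent KD is each design's median over clusters of curve-fitted normalised fluorescence.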

[1] = input ligand: microRNA oligo, concentration not stated
[2] = Eterna round: R95, input ligand: microRNA oligo, concentration not stated
[3] = Eterna round: R95, input ligand: FMN 200 uM
[4] = Eterna round: R95, input ligand: none

| Sequence | apparent KD of MS2 coat protein (input ligand: FMN 200 uM) [nM] | apparent KD of MS2 coat protein (input ligand: none) [nM] | apparent KD of MS2 coat protein [2] [nM] | further results |
| --- | --- | --- | --- | --- |
| UCACGGGUUUGAGGAUAUAUUAUUAUUAUUUAAAUAGAAGGCAAAGAAAUUGUUAUUUCACUAUACAUGAGGAUCACCCAUGUU [JR_ExcNG1_Sub088] (Eterna round: R96, puzzle: Exclusion NG 1) | – | – | – | apparent KD of MS2 coat protein [1]: 19.5 nM |
| ACAUGAGGAUCACCCAUGUGACCAUGAUGGCUGAUGUAGAGCUAGGAUAUGAGUGAAUAUCUAUCUCAGAAGGAGCUUGACUGG [Deportation 48 - Jieux - Exclusion NG 3] (Eterna round: R96, puzzle: Exclusion NG 3) | 16.7 | 21.3 | – | apparent KD of MS2 coat protein [1]: 15.4 nM |
| GGUCCACAUGAGGAUCACCCAUGUUAGGAUAUCUCCCGCCUCCUCACUAGAGGCGGACAGAGAAGGAACAUCAA [Raerge] (puzzle: Exclusion 1) | – | – | 23.2 | – |
| AGUAACAGAGGAUAUACUAUUUUAUGUAUUUAUUAUUUUGAACAUGAGGAUCACCCAUGUAGAAGGCUGAAUAA [JMF 89] (puzzle: Exclusion 2) | – | – | 23.3 | – |
| UUUAUGUCAGGAUAUACAUGAGGAUCACCCAUGUAUAUCUAAAAAUAUACAUGGGUAUGUAGAAGGGACCUCCU [Omei Ex3 Pseudoloop 2] (Eterna round: R97, puzzle: Exclusion 3) | 52.6 | 146 | – | – |
| UGUUGUCGCGUAGGAUAUGAGGAUCACCCAUAUACAGGAUAUGAAAAGAAGGGUCUGAGGAUCACCCAGAAGGACGGGACAACU [pwkr exNG2 2xF5 2xFMN.28] (Eterna round: R96, puzzle: Exclusion NG 2) | 1390 | 116 | – | apparent KD of MS2 coat protein [1]: 94.9 nM |
| UACAUGAGGAUCACCCAUGUUUUGUCGUGUAUGGUACCCAUCUAGGAUAUCGUGUUAUUGGACCACGAGAAGGAGAGUAUCAAU [Excl-NG3-LRO01] (Eterna round: R96, puzzle: Exclusion NG 3) | 19.2 | 24.1 | – | apparent KD of MS2 coat protein [1]: 18.1 nM |
| ACAAGCUUUUUGUUCGUCUUAUACACUCCUAAUAAGACAACAUGAGGAUCACCCAUGUAACAAAGACGAACUCAUGU [Sesor Array 8 - Jieux - Sensor v3, turn-off variant 2] (puzzle: Sensor v3, turn-off variant 2) | – | – | 257 | apparent KD of MS2 coat protein [3]: 22.4 nM; apparent KD of MS2 coat protein [4]: 19.9 nM |
| AGUACUAACACGAGAGUGUUAGUACUAUAAGCUUGUGUUACAUGAGGAUCACCCAUGUCCUCAUAAGCUCGUCUUAG [Mat - Sensor v3 - Turn-off var 2 - D67] (puzzle: Sensor v3, turn-off variant 2) | – | – | 99 | apparent KD of MS2 coat protein [3]: 39.3 nM; apparent KD of MS2 coat protein [4]: 44.6 nM |
| UAGUACAUCUAUGGGAGUAACAUGAGGAUCACCCAUGUAUGUCUUGUUUUUUGUUCGUCAUAGGCCUUUUGAUUGGC [JR_SV3TOV1_Sub028] (puzzle: Sensor v3, turn-off variant 1) | – | – | 228 | apparent KD of MS2 coat protein [3]: 107 nM; apparent KD of MS2 coat protein [4]: 113 nM |
| GUCCUCAUGGCGCCUAAACACAUGAGGAUCACCCAUGUACAGGCUUUUUGCCGUCUUAUAAUAAAACCGAGGAUGCG [Reanaor] (puzzle: Sensor v3, turn-off variant 1) | – | – | 157 | apparent KD of MS2 coat protein [3]: 103 nM; apparent KD of MS2 coat protein [4]: 148 nM |
| CAUACAGUAGUUAGGAUAUUGCAACGUAUACGGAUCGAGAAGGGACAUGAGGAUCACCCAUGUAGAUUGUAAAG [EX-4 Malc #9] (puzzle: Brourd's mod of Exclusion 4) | – | – | 34 | – |
| CUCUUGUGAGGAUAUCAGGUGUGCUAGCGUACUGGUACAUCUGAGAAGGCACAUGAGGAUCACCCAUGUUUCUA [Mat - Exclusion 4 - Mod of JL - D40] (puzzle: Exclusion 4) | – | – | 93.8 | – |
| GGGUGCAGGCUGAGGUCCUACAUGAGGAUCACCCAUGUGGUCCGGUGACGUGAGUCGCCGGACUUGGCUCGUCUUGU [salish99_S_TOV1_R5_011] (Eterna round: R97, puzzle: Sensor, turn-off variant 1) | 42.2 | 52.1 | – | – |
| CUGGUCCGAGGAUAUAUUAAGUGAUACAUGAGGAUCACCCAUGUAAUUUGAUGGAUGUAAAUAGAAGGCGGACUAG [JL-ex5-3.10] (puzzle: Exclusion 5) | – | – | 63.5 | apparent KD of MS2 coat protein [3]: 36.8 nM; apparent KD of MS2 coat protein [4]: 45 nM |
| CUUUUGUGAGGAUAUUAGUAGUAAAUAAAUAAAAUUAUUACUGAGAAGGCACAUGAGGAUCACCCAUGUUCCUU [Salish 062 v20] (Eterna round: R97, puzzle: Exclusion 4) | 63.6 | 17 | – | – |
| GCGAUAACCGAGGAUAUCGGUGAUAGAGAUAAUUGAGAAGGCGGUACAUGAGGAUCACCCAUGUAUACGUGGGC [Eternabot (L2) Solution 87] (Eterna round: R97, puzzle: Exclusion 6) | 16.7 | 15.7 | – | – |
| UUGAUGUCAUCAGGAUAUAGUAUUUAAGACAUAUCUUCUUUCUUACAUGAGGAUCACCCAUGUCGCUAGAAGGGAUGAAUGAUU [JR_ExcNG2_Sub086] (Eterna round: R96, puzzle: Exclusion NG 2) | – | – | – | apparent KD of MS2 coat protein [1]: 13.4 nM |

| Sequence | apparent KD of MS2 coat protein (input ligand: FMN 200 uM) [nM] | apparent KD of MS2 coat protein (input ligand: none) [nM] | apparent KD of MS2 coat protein [2] [nM] | further results |
| --- | --- | --- | --- | --- |
| ACCUCACAUGAGGAUCACCCAUGUCAGGAUAUCCAACAUGCUCCCAGGACCAAGCAUAGGAGAAGGGACAUGCG (Eterna round: R97, puzzle: Exclusion 1) | 76.5 | 27.2 | – | – |
| GAUAAGGUAGGAUAUACGAAUAAAUAGGGUAGAAUAAUAACACAUGAGGAUCACCCAUGUAGAAGGACCAAUAG [Mat - Exclusion 2 - Mod of my Tesla design - D26] (puzzle: Exclusion 2) | – | – | 25.6 | apparent KD of MS2 coat protein [3]: 38.9 nM; apparent KD of MS2 coat protein [4]: 26.3 nM |
| UCGGCGCGAGGAUAUGCGGUUUGUGCUUUGGGCCCUGGCGUACAUGAGGAUCACCCAUGUAGAAGGCGCGUUGC [Apr-15 SS2-48] (puzzle: Exclusion 2) | – | – | 17.1 | – |
| UGGUAACAUGAGGAUCACCCAUGUCAGGAUAUCAGGAAGAGGAGAGGAGAGGAGAAGAUGAGAAGGGACUAUAU [Excluse me! 12 - Jieux - Exclusion 1] (puzzle: Exclusion 1) | – | – | 19.8 | – |
| CACCGUUAGUGAGGAUAUCGUACAUGAGGAUCACCCAUGUAAUAAAUGAGAAUUUCGGAUGUAUGCGAGAAGGCACAAAUCGGC [Ostracism 40 - Jieux - Exclusion NG 2] (Eterna round: R96, puzzle: Exclusion NG 2) | 37.1 | 45.2 | – | apparent KD of MS2 coat protein [1]: 34.7 nM |
| CAAUUCUGAGGAUAUCGAUUUUUGUACAUGAGGAUCACCCAUGUCCUUUUUAUUUAAUCCCGAGAAGGCAGUGUAU [JR_E5_Sub097] (puzzle: Exclusion 5) | – | – | 23.8 | – |
| UUUAAUUUUUUUUUUUUACAAGCUUUUUGCUCGUCUUAUACAUGAGGAUCACCCAUGUAGGUGAAAAGUAAAUUAUC [JMF 45] (puzzle: Sensor v3, turn-off variant 2) | – | – | 82.1 | apparent KD of MS2 coat protein [3]: 15.8 nM; apparent KD of MS2 coat protein [4]: 20.8 nM |
| AGCUUUGCUGCUCGUCCCAACAUGAGGAUCACCCAUGUUCUUAUGAAACCAUCUAGCCUAGAUGGGUCUUGCCAAAG [Eternabot (Original) Solution 47] (Eterna round: R97, puzzle: Sensor, turn-off variant 1) | 27.1 | 29.1 | – | – |
| CCCAUGUCAGGAUAUUAGAUACUGCCUCAAAACAAAGGCAUUGAGAAGGGACAUGAGGAUCACCCAUGUAAAAC [Leissobima] (Eterna round: R97, puzzle: Exclusion 4) | 59.5 | 183 | – | – |
| UAUUAGCAAGCGAGAUCCCACAUGAGGAUCACCCAUGUGCUCGUCUUAUAAGGUACUGUGACGAUAGUCACGGUACC [Mat - Sensor, turn-off var - Eli Mod - D16] (Eterna round: R97, puzzle: Sensor, turn-off variant 1) | 12.9 | 14.8 | – | – |
| GUUAUGCAGCAGGAUAUCGAUCCGCGGUAUGAUCGAGAAGGGCUGACAUGAGGAUCACCCAUGUGCGUCCUAGG [jl-ex6-4.46 ViennaUCT mod] (Eterna round: R97, puzzle: Exclusion 6) | 170 | 36.6 | – | – |
| CAUACACAUGAGGAUCACCCAUGUGAGGAUAUGCGUACGUUGUCCGUAGGCGACGUGCGCAGAAGGCGCAAGGU [JL-ex1-3.17 Eli mod] (puzzle: Exclusion 1) | – | – | 50.4 | – |
| UUUGUUUUGCAAGGAUAUGUUUAAUUUUAUUUUCCUUACACAUGAGGAUCACCCAUGUUAUACUUACAGAAGGUGCGUAAUUUG [Excl-NG2-LRO04] (Eterna round: R96, puzzle: Exclusion NG 2) | – | – | – | apparent KD of MS2 coat protein [1]: 165 nM |
| GGUCGUCAAGUCAGGAUAUCGUUUGGUCGGUGUGACGAGAAGGGACAUGAGGAUCACCCAUGUCGUCUCAUCAG [Ex4 #29] (Eterna round: R97, puzzle: Brourd's mod of Exclusion 4) | 31 | 30.8 | – | – |
| CUUUUUUUUGUGAGGAUAUACUGUUAUUAAAGUUAGUAGAAGGUACAUGAGGAUCACCCAUGUUAAUUACUUUA [JR_BME4_Sub050] (puzzle: Brourd's mod of Exclusion 4) | – | – | 12.9 | – |
| AGUUAUGCAGGAUAUUGCGGGCCAGACAUGAGGAUCACCCAUGUGUGGGAGUCCUGCGCGCGAGAAGGGCAGACAA [EX5 B.22] (Eterna round: R97, puzzle: Exclusion 5) | 28.9 | 20.4 | – | – |
| AGCUAGUCAGGAUAUUCUAUUAAUUACAUGAGGAUCACCCAUGUGAAUGGGCAAGGGUGUGAAGAAGGGACUAGCG [Omei Ex5 A16] (Eterna round: R97, puzzle: Exclusion 5) | 305 | 1030 | – | – |
